Assays:
[1] = biological target: IMP3 full length (Homo sapiens) (UniProt O00425); test: SELEX; settings: round 4
[2] = biological target: IMP3 KH1-2 (Homo sapiens) (UniProt O00425); test: SELEX; settings: round 4
[3] = biological target: IMP3 KH1-4 (Homo sapiens) (UniProt O00425); test: SELEX; settings: round 4
[4] = biological target: IMP3 RRM1-2 (Homo sapiens) (UniProt O00425); test: SELEX; settings: round 2
[5] = biological target: IMP3 KH3-4 (Homo sapiens) (UniProt O00425); test: SELEX; settings: round 4
Sequence of IMP3 KH3-4 (Homo sapiens) (O00425 377-579): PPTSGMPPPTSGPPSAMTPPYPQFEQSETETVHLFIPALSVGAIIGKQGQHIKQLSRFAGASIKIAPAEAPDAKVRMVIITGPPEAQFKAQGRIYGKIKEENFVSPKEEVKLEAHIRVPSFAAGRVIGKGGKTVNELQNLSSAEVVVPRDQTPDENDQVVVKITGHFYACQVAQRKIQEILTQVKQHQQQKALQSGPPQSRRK

[6] = biological target: IMP3 full length (Homo sapiens) (UniProt O00425); test: EMSA; settings: Hill n 3.1; EMSA: 10 mM Tris-HCl pH 7.5, 150 mM NaCl, 0.5 mM EDTA, 0.5 mM DTT, 0.1% NP-40, 5% glycerol, tRNA+BSA, 5 nM RNA, 30 min RT then ice; ITC/NMR: 20 mM Bis-Tris …

Sequence of IMP3 KH1-2 (Homo sapiens) (O00425 164-376): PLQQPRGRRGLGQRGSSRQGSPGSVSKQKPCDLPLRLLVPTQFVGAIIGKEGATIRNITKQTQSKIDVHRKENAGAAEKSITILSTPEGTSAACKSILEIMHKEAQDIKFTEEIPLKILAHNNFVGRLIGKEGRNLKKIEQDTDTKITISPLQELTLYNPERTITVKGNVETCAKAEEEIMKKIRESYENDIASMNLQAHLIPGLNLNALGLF
Sequence of IMP3 KH1-4 (Homo sapiens) (O00425 164-579): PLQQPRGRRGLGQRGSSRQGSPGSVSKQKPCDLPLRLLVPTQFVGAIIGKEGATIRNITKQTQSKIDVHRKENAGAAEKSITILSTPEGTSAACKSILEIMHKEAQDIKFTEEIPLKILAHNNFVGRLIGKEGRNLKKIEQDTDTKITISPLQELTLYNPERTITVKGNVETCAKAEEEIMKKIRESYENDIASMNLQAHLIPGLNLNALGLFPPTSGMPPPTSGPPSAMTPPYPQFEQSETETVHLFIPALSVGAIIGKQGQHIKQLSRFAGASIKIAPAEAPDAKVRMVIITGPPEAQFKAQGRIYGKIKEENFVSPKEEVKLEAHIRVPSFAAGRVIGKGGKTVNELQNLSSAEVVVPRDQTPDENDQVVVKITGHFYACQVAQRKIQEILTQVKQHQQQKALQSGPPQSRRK
Sequence of IMP3 full length (Homo sapiens) (O00425 whole entry): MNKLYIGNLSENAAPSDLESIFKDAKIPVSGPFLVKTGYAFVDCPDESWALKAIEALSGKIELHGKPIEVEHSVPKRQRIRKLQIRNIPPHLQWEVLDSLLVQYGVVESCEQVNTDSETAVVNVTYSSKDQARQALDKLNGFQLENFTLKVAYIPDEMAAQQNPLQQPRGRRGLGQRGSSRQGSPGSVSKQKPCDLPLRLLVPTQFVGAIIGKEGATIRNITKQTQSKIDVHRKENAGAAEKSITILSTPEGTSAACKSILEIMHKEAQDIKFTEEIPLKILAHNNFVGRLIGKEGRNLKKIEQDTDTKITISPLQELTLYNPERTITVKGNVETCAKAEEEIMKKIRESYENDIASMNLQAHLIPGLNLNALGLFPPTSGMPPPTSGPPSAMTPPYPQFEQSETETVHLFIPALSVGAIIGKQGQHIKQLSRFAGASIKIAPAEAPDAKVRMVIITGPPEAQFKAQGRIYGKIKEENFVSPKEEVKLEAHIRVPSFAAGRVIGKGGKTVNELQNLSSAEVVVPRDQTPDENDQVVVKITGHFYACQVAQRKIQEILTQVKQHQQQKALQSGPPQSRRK
Sequence of IMP3 RRM1-2 (Homo sapiens) (O00425 1-163): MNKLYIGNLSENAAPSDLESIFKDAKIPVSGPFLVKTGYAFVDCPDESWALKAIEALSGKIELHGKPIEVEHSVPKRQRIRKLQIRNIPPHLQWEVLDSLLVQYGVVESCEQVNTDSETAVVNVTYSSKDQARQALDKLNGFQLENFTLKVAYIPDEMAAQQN

Substance	binding signal (SELEX z-score, GST-corrected) [1]	binding signal (SELEX z-score, GST-corrected) [2]	binding signal (SELEX z-score, GST-corrected) [3]	binding signal (SELEX z-score, GST-corrected) [4]	binding signal (SELEX z-score, GST-corrected) [5]	further results
CACACA [6-mer CACACA]	4.75	4.01	3.36	6.79	–	–
UACACA [6-mer TACACA]	–	2.92	–	–	–	–
AAUGAA [6-mer AATGAA]	–	–	–	–	3.19	–
GGCAUC [6-mer GGCATC]	3.48	–	–	–	–	–
AAUUAA [6-mer AATTAA]	–	–	–	–	3.41	–
ACAUAA [6-mer ACATAA]	–	3.61	2.92	–	3.74	–
AAUAAA [6-mer AATAAA]	–	–	–	–	3.28	–
CAUACA [6-mer CATACA]	3.76	3.49	2.86	3.6	–	–
ACACAA [6-mer ACACAA]	–	–	–	4.19	–	–
AUACAU [6-mer ATACAT]	–	3.08	2.8	–	–	–
ACAAUA [6-mer ACAATA]	–	3.75	2.68	–	3.13	–
CAUUCA [6-mer CATTCA]	3.36	–	–	3.79	–	–
ACAACA [6-mer ACAACA]	–	2.86	–	3.86	–	–
AUAUAA [6-mer ATATAA]	–	–	–	–	3.89	–
AAUCAU [6-mer AATCAT]	–	–	–	3.82	–	–
CACAUA [6-mer CACATA]	–	3.62	3.19	–	–	–
CGGCAC [6-mer CGGCAC]	4.28	–	2.99	–	–	–
GCACAC [6-mer GCACAC]	3.25	–	–	–	–	–
CAAACA [6-mer CAAACA]	–	–	–	3.91	–	–
AAUAAU [6-mer AATAAT]	–	–	–	–	3.24	–
AUCACA [6-mer ATCACA]	3.5	–	–	4.39	–	–

Substance	binding signal (SELEX z-score, GST-corrected) [1]	binding signal (SELEX z-score, GST-corrected) [2]	binding signal (SELEX z-score, GST-corrected) [3]	binding signal (SELEX z-score, GST-corrected) [4]	binding signal (SELEX z-score, GST-corrected) [5]	further results
ACGGCA [6-mer ACGGCA]	4.07	–	3.02	–	–	–
AAUAUA [6-mer AATATA]	–	–	–	–	3.67	–
CAACAC [6-mer CAACAC]	–	–	–	3.39	–	–
CGGCCA [6-mer CGGCCA]	–	–	2.71	–	–	–
AAUACA [6-mer AATACA]	–	3.44	2.77	–	3.32	–
CAUCAU [6-mer CATCAT]	3.65	–	–	–	–	–
CACAAC [6-mer CACAAC]	–	–	–	3.4	–	–
AUAACA [6-mer ATAACA]	–	3.77	3.19	–	4.15	–
AUAAUA [6-mer ATAATA]	–	–	–	–	3.54	–
ACACAU [6-mer ACACAT]	3.99	3.81	3.27	4.49	–	–
AACACA [6-mer AACACA]	4.2	4.09	2.92	5.77	–	–
GGCACA [6-mer GGCACA]	4.85	–	3.92	–	3.69	–
CAAUCA [6-mer CAATCA]	–	–	–	5.47	–	–
ACAUAU [6-mer ACATAT]	–	2.92	2.88	–	3.36	–
ACAUCA [6-mer ACATCA]	4.02	–	–	3.94	–	–
AACAUA [6-mer AACATA]	–	2.92	–	–	3.48	–
HMGA2 WT	–	–	–	–	–	Kd [6]: 13.1 nM
CAUCAC [6-mer CATCAC]	3.28	–	–	–	–	–
GUCGGC [6-mer GTCGGC]	3.3	–	–	–	–	–
AAAUAA [6-mer AAATAA]	–	–	–	–	3.39	–
ACACAC [6-mer ACACAC]	–	3.26	–	5.19	–	–

From publication PMC6531468
